{"source": "paper PMC6270235", "about": "“A Macrocyclic Peptide that Serves as a Cocrystallization Ligand and Inhibits the Function of a MATE Family Transporter” (Molecules, 2013)", "binders": {"B1": {"name": "MaL6, chemically synthesized thioether-macrocyclic peptide, not conjugated to mRNA, with an additional C-terminal glycine-carboxamide (peptide)", "peptide": "{CH2CO}-FTFRYSPSLYTWFLFPCG-NH2", "modifications": "thioether N-17 (inferred)", "notes": "AcF = N-chloroacetyl-L-phenylalanine; selected from the LF-library by RaPID; additional C-terminal glycine-carboxamide; also called chemically synthesized MaL6; mRNA-free MaL6; source: synthetic peptide, HPLC purified"}}, "target": "T1, Pyrococcus furiosus multidrug and toxic compound extrusion (PfMATE) transporter, wild type, His6-tagged, … (Pyrococcus furiosus, UniProt Q8U2X0 1-461)", "T1 construct": "PfMATE, MATE family transporter of Pyrococcus furiosus, wild type; Held in HEPES-buffered saline with 0.1% Cymal-6; also called His-tagged PfMATE; source: prepared according to literature [29]; not shown: His6, C-terminal, kept", "T1 sequence (looked up)": "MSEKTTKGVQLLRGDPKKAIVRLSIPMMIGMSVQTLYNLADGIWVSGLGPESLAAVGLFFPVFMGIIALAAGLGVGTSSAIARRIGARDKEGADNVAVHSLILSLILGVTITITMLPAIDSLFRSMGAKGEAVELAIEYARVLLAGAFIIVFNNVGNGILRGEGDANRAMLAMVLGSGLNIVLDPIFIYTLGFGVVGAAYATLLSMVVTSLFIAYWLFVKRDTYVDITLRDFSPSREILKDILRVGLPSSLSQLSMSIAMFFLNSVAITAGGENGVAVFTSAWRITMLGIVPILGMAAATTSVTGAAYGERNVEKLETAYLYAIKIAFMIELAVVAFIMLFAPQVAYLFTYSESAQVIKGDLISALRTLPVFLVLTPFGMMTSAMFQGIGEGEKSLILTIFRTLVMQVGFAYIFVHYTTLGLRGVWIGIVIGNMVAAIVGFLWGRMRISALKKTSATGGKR", "assay": "mRNA display selection round with competitor; c-Round 6: 32 µM mRNA-free synthetic MaL6 in the buffer of the binding step, 37 °C, His6-PfMATE on magnetic beads, libraries from Round 5; recovery by real-time PCR", "conditions": "both partners purified", "note": "Bridge positions count the residues as written; N and C are the ends."}
{"binder": "B1", "values": [{"measurement": "binding result", "value": "binds"}]}
